Patent publication US20070093646A1 (BIOTIE THERAPIES, published 2007)

Biological target: the molecule itself
Assay: X-ray crystal structure, 3.2 A, molecular replacement; one dimer per asymmetric unit
Description: One crystal was mounted in a capillary and preliminary X-ray analysis was carried out in-house using a rotating-anode radiation source (Cu Kα radiation, 50 kV, 150 mA) and MAR345 image plate detector. The crystal, however, diffracted to only 8 Å resolution and the space group could not be accurately determined. All further X-ray analysis, as well as data collection, was carried out using synchrotron radiation at the beamline X11 (EMBL/DESY Hamburg, Germany) equipped with a MAR Research CCD detector. For data collection, the crystals were cryo-protected with 20% (v/v) glycerol and flash-frozen in a 100 K nitrogen stream. Diffraction data, collected from three different crystals, were processed with the program XDS. The solvent content and Matthews coefficient were calculated assuming a molecular weight of 90 kDa per monomer and using the CCP4 suite.
The structure of VAP-1 was solved by molecular replacement using the program AMORE (Navaza, 1994) of the CCP4i program suite (Collaborative Computational Project, 1994). This method confirmed that the space group of VAP-1 crystals was P6522 with one biological unit, a dimer per asymmetric unit. […]
Electron density maps were calculated with FFT of CCP4i suite and were predictable enough to trace the VAP-1 polypeptide, even though, at the beginning of building, in several fragments. […]

B1: human vascular adhesion protein-1 (VAP-1) (enzyme)
chain: MNQKTILVLLILAVITIFALVCVLLVGRGGDGGEPSQLPHCPSVSPSAQPWTHPGQSQLFADLSREELTAVMRFLTQRLGPGLVDAAQARPSDNCVFSVELQLPPKAAALAHLDRGSPPPAREALAIVFFGRQPQPNVSELVVGPLPHPSYMRDVTVERHGGPLPYHRRPVLFQEYLDIDQMIFNRELPQASGLLHHCCFYKHRGRNLVTMTTAPRGLQSGDRATWFGLYYNISGAGFFLHHVGLELLVNHKALDPARWTIQKVFYQGRYYDSLAQLEAQFEAGLVNVVLIPDNGTGGSWSLKSPVPPGPAPPLQFYPQGPRFSVQGSRVASSLWTFSFGLGAFSGPRIFDVRFQGERLVYEISLQEALAIYGGNSPAAMTTRYVDGGFGMGKYTTPLTRGVDCPYLATYVDWHFLLESQAPKTIRDAFCVFEQNQGLPLRRHHSDLYSHYFGGLAETVLVVRSMSTLLNYDYVWDTVFHPSGAIEIRFYATGYISSAFLFGATGKYGNQVSEHTLGTVHTHSAHFKVDLDVAGLENWVWAEDMVFVPMAVPWSPEHQLQRLQVTRKLLEMEEQAAFLVGSATPRYLYLASNHSNKWGHPRGYRIQMLSFAGEPLPQNSSMARGFSWERYQLAVTQRKEEEPSSSSVFNQNDPWAPTVDFSDFINNETIAGKDLVAWVTAGFLHIPHAEDIPNTVTVGNGVGFFLRPYNFFDEDPSFYSADSIYFRGDQDAGACEVNPLACLPQAAACAPDLPAFSHGGFSHN
modifications: topaquinone (Tpq471) formed by post-translational modification of an intrinsic tyrosine at 471; N-glycan attached to Asn232; one copper ion per monomer in the active site
notes: Full-length protein was crystallized; Only residues A55-A761 and B57-B761 are modelled in the structure, with a few gaps; PDB entries are printed as IPU4 (probably 1PU4) and 1US1; also called hVAP-1; HVAP-1
B1: binds.
